The source of these data is patent US6489125.

The target in series [1] is RyR2 channels from failing hearts. Nature of the series: cell-based or functional assay.
Series [2] has the same target. The series is described as follows: co-immunoprecipitation, immunoblot densitometry (FIG. 4B).
Series [3] has as its system type 2 ryanodine receptor (RyR2), native channel from cardiac sarcoplasmic reticulum.

In the case of “FK-506 binding protein FKBP12.6, native from cardiac SR (from UniProt P68106 1-108)”, the open probability (Po) at 50 nM cis (cytosolic) Ca^2+ in series [1] is 0.24. In addition, the decrease in the amount of FKBP12.6 bound (failing against normal hearts) in series [2] is 60%.

With “protein kinase A (PKA) catalytic subunit, endogenous in cardiac SR”, the “phosphorylation of RyR2 on addition of cAMP without exogenous PKA” value in series [3] is “Addition of phosphorylation buffer including cAMP without exogenous PKA also resulted in phosphorylation of RyR2 that was inhibited by PKI”.
